One series addresses T1, Peptide-8 (not fully specified).
T1 chain: CQLYENKPRRPYILK

The target of the next series is T2, Peptide-6a.
T2 chain: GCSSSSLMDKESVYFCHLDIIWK

For another series, the target named is T3, Peptide-13 (not fully specified).
T3 chain: CRPPGFSPFRK

A further series concerns the target T4, Peptide-3.
T4 chain: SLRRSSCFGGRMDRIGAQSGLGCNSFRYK

In another series the target is T5, Peptide-6b.
T5 chain: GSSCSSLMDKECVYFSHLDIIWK

In a further series the target is T6, Peptide-5 (not fully specified).
T6 chain: CDRVYIHPFHLK

Positions count from the first letter of the chain named.

B1: C1 (protein)
chain: YPYDVPDYAYPYDVPDYAYPYDVPDYAGSYDDGICKSSDCIKSAARLIQNMDATTEPCTDFFKYACGGWLKRNVIPETSSRYGNFDILRDELEVVLKDVLQEPKTEDIVAVQKAKALYRSCINESAIDSRGGEPLLKLLPDIYGWPVATENWEQKYGASWTAEKAIAQLNSKYGKKVLINLFVGTDDKNSVNHVIHIDQPRLGLPSRDYYECTGIYKEACTAYVDFMISVARLIRQEERLPIDENQLALEMNKVMELEKEIANATAKPEDRNDPMLLYNKMTLAQIQNNFSLEINGKPFSWLNFTNEIMSTVNISITNEEDVVVYAPEYLTKLKPILTKYSARDLQNLMSWRFIMDLVSSLSRTYKESRNAFRKALYVTTSETATWRRCANYVNGNMMNAVGRLYVEAAFAGESKHVVEDLIAQIREVFIQTLDDLTWMDAETKKRAEEKALAIKERIGYPDDIVSNDNKLNNEYLELNYKEDEYFENIIQNLKFSQSKQLKKLREKVDKDEWISGAAVVNAFYSSGRNQIVFPAGILQPPFFSAQQSNSLNYGGIGMVIGHEITHGFDDNGRNFNKDGDLVDWWTQQSASNFKEQSQCMVYQYGNFSWDLAGGQHLNGINTLGENIADNGGLGQAYRAYQNYIKKNGEEKLLPGLDLNHKQLFFLNFAQVWCGTYRPEYAVNSIKTVVHSPKNFRIIGTLQNSAEFSEAFHCRKNSYMNPEKKCRVW
Consider B1, for which the activity relative to G399V/G714K (B1) with Peptide-7 was 0.96 fold; with Peptide-2, 1.12 fold; in the series with Peptide-6a, 0.76 fold; with Peptide-4, 1.1 fold; in the series with Peptide-1, 1.14 fold; with Peptide-5 it was 0.86 fold. In addition, the kapp ratio vs G399V/G714K (B1) with Peptide-7 was determined as 0.9 fold; in the series with Peptide-2, 1.23 fold; in the series with Peptide-8, 0.62 fold; with Peptide-6a, 0.97 fold; with Peptide-13, 0.52 fold; with Peptide-3 it was 0.36 fold. The kapp ratio vs G399V/G714K (B1) in the series with Peptide-4 came to 0.51 fold; with Peptide-6b it was 0.76 fold; with Peptide-1, 1.28 fold; in the series with Peptide-5 it was 1.02 fold.

B2: C10 (protein)
chain: B1 chain with S206R, F226L, D569M, G572V, F575P, G579D, V688D
Regarding B2, the activity relative to G399V/G714K (B1) with Peptide-7 amounted to 0.68 fold; in the series with Peptide-2, 2.39 fold; in the series with Peptide-6a, 0.28 fold; with Peptide-4 it was 0.83 fold; with Peptide-1, 2.05 fold; in the series with Peptide-5, 0.08 fold. Moreover, the kapp ratio vs G399V/G714K (B1) with Peptide-7 came to 0.49 fold; in the series with Peptide-2, 2.6 fold; in the series with Peptide-8, 0.34 fold; with Peptide-6a, 0.27 fold; in the series with Peptide-13, 0.68 fold; with Peptide-3 it was 0.24 fold. In addition, the kapp ratio vs G399V/G714K (B1) in the series with Peptide-4 is 0.8 fold; with Peptide-6b, 0.19 fold; with Peptide-1, 2.35 fold; with Peptide-5 it was 0.17 fold.

B3: C7 (protein)
chain: B1 chain with S206R, R207G, M398E, D569F, G572V, G579L, V688D
As to B3, the kapp ratio vs G399V/G714K (B1) with Peptide-7 was determined as 0.47 fold; with Peptide-2 it was 2.83 fold; in the series with Peptide-8 it was 0.46 fold; in the series with Peptide-6a it was 0.42 fold; with Peptide-13 it was 0.43 fold; in the series with Peptide-3 it was 0.24 fold. Also, the kapp ratio vs G399V/G714K (B1) with Peptide-4 is 0.96 fold; with Peptide-6b, 0.28 fold; with Peptide-1 it was 2.77 fold; in the series with Peptide-5, 0.34 fold.

B4: C9 (protein)
chain: B1 chain with S206R, R207G, M398E, D569M, G572V, G579L, V688D
As for B4, the kapp ratio vs G399V/G714K (B1) worked out at 0.52 fold with Peptide-7; 2.44 fold with Peptide-2; 0.46 fold with Peptide-8; 0.31 fold with Peptide-6a; 0.52 fold with Peptide-13; 0.24 fold in the series with Peptide-3. Further, the kapp ratio vs G399V/G714K (B1) in the series with Peptide-4 worked out at 0.67 fold; with Peptide-6b, 0.21 fold; in the series with Peptide-1 it was 2.33 fold; with Peptide-5, 0.22 fold.

B5: C8 (protein)
chain: B1 chain with S206R, R207G, M398E, D569F, G579W, V688D
Take B5: the kapp ratio vs G399V/G714K (B1) with Peptide-7 was 0.69 fold; in the series with Peptide-2, 1.64 fold; in the series with Peptide-8 it was 0.36 fold; with Peptide-6a it was 0.32 fold; with Peptide-13, 0.43 fold; with Peptide-3, 0.24 fold. The kapp ratio vs G399V/G714K (B1) is 1.17 fold with Peptide-4, 0.24 fold with Peptide-6b, 1.86 fold in the series with Peptide-1 and 0.27 fold in the series with Peptide-5.

B6: D8 (protein)
chain: B1 chain with S206R, F226L, D569M, G572V, F575P, G579D, G624Q, V688D
As for B6, the activity relative to G399V/G714K (B1) in the series with Peptide-7 was 0.82 fold; with Peptide-2 it was 2.66 fold; with Peptide-6a, 0.44 fold; with Peptide-4, 0.95 fold; in the series with Peptide-1, 2.58 fold; with Peptide-5 it was 0.09 fold.

B7: D9 (protein)
chain: B1 chain with S206R, F226L, A266S, D356G, D569M, G572V, F575P, G579D, V688D
For the protein B7, the activity relative to G399V/G714K (B1) with Peptide-7 came out at 0.43 fold; with Peptide-2, 1.11 fold; with Peptide-6a it was 0.06 fold; with Peptide-4 it was 0.86 fold; with Peptide-1, 1.07 fold; with Peptide-5, 0.08 fold.

B8: D10 (protein)
chain: B1 chain with S206R, F226L, A266S, D356G, D569M, G572V, F575P, G579D, G624Q, V688D
Consider B8, for which the activity relative to G399V/G714K (B1) with Peptide-7 amounted to 0.33 fold; with Peptide-2, 1.26 fold; with Peptide-6a, 0.08 fold; in the series with Peptide-4, 0.84 fold; with Peptide-1, 1.33 fold; with Peptide-5, 0.08 fold.

B9: C2 (protein)
chain: B1 chain with S206R, R207G, F226L, D569F, F575P, G579D, V688D
Consider B9, for which the kapp ratio vs G399V/G714K (B1) with Peptide-7 was determined as 0.47 fold; with Peptide-2, 0.88 fold; with Peptide-8, 0.34 fold; with Peptide-6a, 0.14 fold; with Peptide-13, 0.68 fold; with Peptide-3 it was 0.24 fold. Besides, the kapp ratio vs G399V/G714K (B1) with Peptide-4 was 0.72 fold; with Peptide-6b, 0.1 fold; with Peptide-1, 1.06 fold; with Peptide-5, 0.19 fold.

B10: C6 (protein)
chain: B1 chain with S206R, R207G, D569M, G572V, G579V, V688D
Regarding B10, the kapp ratio vs G399V/G714K (B1) with Peptide-7 was 0.61 fold; with Peptide-2 it was 2.36 fold; with Peptide-8, 0.37 fold; with Peptide-6a it was 0.28 fold; in the series with Peptide-13, 0.85 fold; in the series with Peptide-3, 0.24 fold. For the same protein, the kapp ratio vs G399V/G714K (B1) in the series with Peptide-4 turned out to be 1.26 fold; with Peptide-6b, 0.19 fold; with Peptide-1, 2.35 fold; in the series with Peptide-5, 0.29 fold.

B11: C3 (protein)
chain: B1 chain with S206R, R207G, F226L, M398E, D569F, F575P, G579D, V688D
On to B11, for which the kapp ratio vs G399V/G714K (B1) in the series with Peptide-7 was 0.64 fold; with Peptide-2 it was 0.81 fold; with Peptide-8, 0.37 fold; with Peptide-6a, 0.18 fold; in the series with Peptide-13 it was 0.85 fold; in the series with Peptide-3, 0.24 fold. Further, the kapp ratio vs G399V/G714K (B1) with Peptide-4 came to 0.79 fold; with Peptide-6b, 0.09 fold; in the series with Peptide-1 it was 0.86 fold; with Peptide-5, 0.15 fold.

B12: C4 (protein)
chain: B1 chain with S206R, R207G, D569F, G572V, G579V, V688D
For B12, the kapp ratio vs G399V/G714K (B1) was determined as 0.44 fold in the series with Peptide-7; 2.43 fold in the series with Peptide-2; 0.4 fold in the series with Peptide-8; 0.37 fold with Peptide-6a; 0.62 fold in the series with Peptide-13; 0.24 fold in the series with Peptide-3. Besides, the kapp ratio vs G399V/G714K (B1) in the series with Peptide-4 was determined as 0.44 fold; in the series with Peptide-6b, 0.29 fold; in the series with Peptide-1, 2.41 fold; in the series with Peptide-5, 0.27 fold.

B13: D7 (protein)
chain: B1 chain with S206R, F226L, D356G, D569M, G572V, F575P, G579D, V688D
Take B13: the activity relative to G399V/G714K (B1) with Peptide-7 was 0.66 fold; with Peptide-2, 1.18 fold; with Peptide-6a it was 0.13 fold; in the series with Peptide-4, 0.91 fold; with Peptide-1, 0.88 fold; with Peptide-5, 0.09 fold.

B14: C5 (protein)
chain: B1 chain with S206R, R207G, D569F, F575P, G579D, V688D
For B14, the kapp ratio vs G399V/G714K (B1) with Peptide-7 was found to be 0.72 fold; with Peptide-2, 1.92 fold; in the series with Peptide-8, 0.41 fold; with Peptide-6a it was 0.23 fold; with Peptide-13, 0.63 fold; in the series with Peptide-3, 0.24 fold. In addition, the kapp ratio vs G399V/G714K (B1) with Peptide-4 stood at 0.74 fold; in the series with Peptide-6b, 0.18 fold; with Peptide-1, 1.95 fold; with Peptide-5, 0.22 fold.

The record behind these values is US20120237496.
